In experiment [1] the target is crCytb5-1, Chlamydomonas reinhardtii cytochrome b5-1 (Chlamydomonas reinhardtii).
For experiment [2], the target named is crCytb5-R, Chlamydomonas reinhardtii NADH cytochrome b5 reductase (Chlamydomonas reinhardtii).
Experiment [3] addresses crARC variant R276A (Chlamydomonas reinhardtii). The experiment is described as follows: SEC; each protein loaded alone; Superdex 200 10/300 GL, 50 mM phosphate buffer pH 7.2, 0.15 M NaCl, 0.75 mL/min; Mw from a calibration curve of marker proteins.
The target of experiment [4] is crCytb5-1, Chlamydomonas reinhardtii cytochrome b5-1 (Chlamydomonas reinhardtii). Described as above.
For experiment [5], the target named is crCytb5-R, Chlamydomonas reinhardtii NADH cytochrome b5 reductase (Chlamydomonas reinhardtii). The experiment is described as follows: SEC; two proteins incubated together for 10 min, then loaded; 15 pmol of each; Superdex 200 10/300 GL, 50 mM phosphate buffer pH 7.2, 0.15 M NaCl, 0.75 mL/min; peak fractions checked by SDS-PAGE.
Experiment [6] has as its target crARC, Chlamydomonas reinhardtii mARC (mitochondrial Amidoxime Reducing Component), wild type (Chlamydomonas reinhardtii). The experiment is described as above.
Experiment [7] has as its target crARC variant F210A (Chlamydomonas reinhardtii). The experiment is described as follows: SEC; each protein loaded alone; Superdex 200 10/300 GL, 50 mM phosphate buffer pH 7.2, 0.15 M NaCl, 0.75 mL/min; Mw from a calibration curve of marker proteins.

Regarding crARC variant E267A (enzyme), the NADH-dependent HAP reduction activity of the crARC variant with crCytb5-1 and crCytb5-R (% of the wild type activity) in experiment [1] was 25.

Substance “crARC variant E267A (enzyme; the values are: NADH-dependent HAP reduction activity (% of wild type))” returned an NADH-dependent HAP reduction activity of the crARC variant with crCytb5-1 and crCytb5-R in experiment [2] of 25%. As for crARC variant R276A (enzyme), the stoichiometry N in experiment [3] is 30 crARC units. Substance “crCytb5-1, Chlamydomonas reinhardtii cytochrome b5-1 (natural protein)” registered a stoichiometry N in experiment [4] of 2. In addition, in experiment [5], the stoichiometry N (crCytb5-1 per crCytb5-R) was 4. Besides, the stoichiometry N (crCytb5-1 per crARC) in experiment [6] is 2. crARC variant F210A (enzyme): the times more oligomeric forms than the wild type in experiment [7] is 10 times.
